# Assay results taken from publication PMC4605657, “Interaction between TATA-Binding Protein (TBP) and Multiprotein Bridging Factor-1 (MBF1) from the Filamentous Insect Pathogenic Fungus Beauveria bassiana” (PLoS ONE, 2015).
# B1: Beauveria bassiana multiprotein bridging factor 1 (BbMBF1) (natural protein)
# chain: not shown
# notes: Multiprotein bridging factor 1 of Beauveria bassiana, locus tag BBA_01830, 153 amino acids; open reading frame amplified with primers PMBF1-F/PMBF1-R and cloned EcoRI/HindIII into pET28a; the forward primer begins at the codon after the start methionine (TCT GAC GAC ...), the reverse primer holds the stop codon; source: E. coli Rosetta DE3, purified (Ni- or Co-NTA agarose)
# Target: T1, Beauveria bassiana TATA-binding protein (BbTBP) (Beauveria bassiana, UniProt J4W563 1-253)
# T1 construct: open reading frame amplified with primers PTBP-F/PTBP-R and cloned EcoRI/HindIII into pET28a; the forward primer begins at the codon after the start methionine (GAG GGC ATT ...), the reverse primer holds the stop codon; also called BbTBP1; source: E. coli Rosetta DE3, purified (Ni- or Co-NTA agarose)
# T1 sequence: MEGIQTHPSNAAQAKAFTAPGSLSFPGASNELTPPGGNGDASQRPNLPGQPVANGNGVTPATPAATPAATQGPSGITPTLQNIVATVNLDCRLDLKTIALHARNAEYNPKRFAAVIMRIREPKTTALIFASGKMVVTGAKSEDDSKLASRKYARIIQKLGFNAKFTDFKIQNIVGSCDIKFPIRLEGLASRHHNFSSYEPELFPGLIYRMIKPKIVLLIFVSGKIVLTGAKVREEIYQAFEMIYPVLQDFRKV
# Experiment: native gel or EMSA; super-shift on 6% non-denaturing PAGE; BbTBP 1129 nM and BbMBF1 855 nM with TATA-containing oligonucleotide (TATA^C 16.8 nM or TATA^P 18.3 nM); 30 min at 37°C; 60 mM KCl, 20 mM Tris pH 7.9, 5.0 mM MgCl2, 10 mM dithiothreitol, 0.2 mg/ml BSA, 10% glycerol; nucleic acid and protein stain
# Conditions: both partners purified
binder,measurement,value
B1,binding result,binds
